Reference: PMC9482650, “Quantitative fragmentomics allow affinity mapping of interactomes” (Nature Communications, 2022)

What was measured:
Assay in all cases: holdup assay
Parameters in all cases: key: below the threshold = too weak to quantify, mostly under pKd 3.1 to 4
FRMPD3, Q5JV73 = molecular target: FRMPD3, Q5JV73
PARD3B_1, Q8TEW8 = molecular target: T1, PARD3B_1, Q8TEW8
T1 sequence (Q8TEW8 196-299, limits assumed, looked up): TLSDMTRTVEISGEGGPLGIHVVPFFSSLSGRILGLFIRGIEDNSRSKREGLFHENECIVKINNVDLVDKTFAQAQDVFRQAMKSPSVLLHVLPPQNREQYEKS

SCRIB_1, Q14160 = molecular target: SCRIB_1, Q14160
LDB3, O75112 = molecular target: LDB3, O75112
DLG2_2, Q15700 = molecular target: DLG2_2, Q15700
MAGI1_1, Q96QZ7 = molecular target: MAGI1_1, Q96QZ7
FRMPD1, Q5SYB0 = molecular target: T2, FRMPD1, Q5SYB0
T2 sequence (Q5SYB0 52-145, limits assumed, looked up): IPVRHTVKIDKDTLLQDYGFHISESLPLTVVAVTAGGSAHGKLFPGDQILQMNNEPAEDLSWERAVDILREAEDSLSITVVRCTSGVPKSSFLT

ARHGEF12, Q9NZN5-2 = molecular target: ARHGEF12, Q9NZN5-2
DLG4_1, P78352 = molecular target: DLG4_1, P78352
PDZRN3_1, Q9UPQ7 = molecular target: T3, PDZRN3_1, Q9UPQ7
T3 sequence (Q9UPQ7 244-349, limits assumed, looked up): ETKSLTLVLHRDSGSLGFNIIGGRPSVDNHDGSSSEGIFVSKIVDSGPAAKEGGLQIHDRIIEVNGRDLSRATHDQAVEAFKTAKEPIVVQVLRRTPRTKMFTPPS

GRASP, Q7Z6J2 = molecular target: GRASP, Q7Z6J2
Inadl_3, Q8NI35 = molecular target: Inadl_3, Q8NI35
MPP2, Q14168 = molecular target: T4, MPP2, Q14168
T4 sequence (Q14168 180-250, limits assumed, looked up): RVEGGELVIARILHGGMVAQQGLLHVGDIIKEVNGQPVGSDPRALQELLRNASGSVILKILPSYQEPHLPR

GIPC2, Q8TF65 = molecular target: GIPC2, Q8TF65
LIMK2, P53671 = molecular target: LIMK2, P53671
LIN7A, O14910 = molecular target: T5, LIN7A, O14910
T5 sequence (O14910 103-200, limits assumed, looked up): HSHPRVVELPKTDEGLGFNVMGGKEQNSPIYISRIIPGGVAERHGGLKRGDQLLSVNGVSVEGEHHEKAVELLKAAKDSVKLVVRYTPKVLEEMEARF

GRIP2_6, Q9C0E4 = molecular target: GRIP2_6, Q9C0E4
MAST2, Q6P0Q8 = molecular target: MAST2, Q6P0Q8
MAGI2_6, Q86UL8 = molecular target: MAGI2_6, Q86UL8
ARHGAP21, Q5T5U3 = molecular target: T6, ARHGAP21, Q5T5U3
T6 sequence (Q5T5U3 45-169, limits assumed, looked up): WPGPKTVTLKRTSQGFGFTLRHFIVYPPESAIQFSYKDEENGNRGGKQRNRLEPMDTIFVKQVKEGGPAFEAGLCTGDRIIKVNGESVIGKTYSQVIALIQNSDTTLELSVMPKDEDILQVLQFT

RADIL, Q96JH8 = molecular target: T7, RADIL, Q96JH8
T7 sequence (Q96JH8 971-1071, limits assumed, looked up): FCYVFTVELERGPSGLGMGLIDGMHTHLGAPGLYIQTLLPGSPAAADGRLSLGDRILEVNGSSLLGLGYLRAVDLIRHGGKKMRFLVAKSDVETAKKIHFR

Inadl_8, Q8NI35 = molecular target: Inadl_8, Q8NI35
Inadl_10, Q8NI35 = molecular target: Inadl_10, Q8NI35
PTPN3, P26045 = molecular target: PTPN3, P26045
NHERF4_1, Q86UT5-2 = molecular target: NHERF4_1, Q86UT5-2
MAGI2_5, Q86UL8 = molecular target: MAGI2_5, Q86UL8
CARD11, Q9BXL7 = molecular target: T8, CARD11, Q9BXL7
T8 sequence (Q9BXL7 662-765, limits assumed, looked up): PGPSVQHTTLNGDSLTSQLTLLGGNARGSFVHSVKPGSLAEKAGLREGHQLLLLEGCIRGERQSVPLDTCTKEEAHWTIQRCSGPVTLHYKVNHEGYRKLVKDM

LNX2_3, Q8N448 = molecular target: T9, LNX2_3, Q8N448
T9 sequence (Q8N448 463-564, limits assumed, looked up): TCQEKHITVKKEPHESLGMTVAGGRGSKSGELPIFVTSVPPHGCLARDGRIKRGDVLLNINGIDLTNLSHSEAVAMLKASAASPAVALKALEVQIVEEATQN

SNX27, Q96L92 = molecular target: SNX27, Q96L92
[1] = plain residues with an end cap or a label only (N-terminal biotin on a linker: ado-ado)
[2] = plain residues with an end cap or a label only (N-terminal biotin on a linker: ahx)

Sequence of Inadl_8, Q8NI35 (Q8NI35 1425-1530): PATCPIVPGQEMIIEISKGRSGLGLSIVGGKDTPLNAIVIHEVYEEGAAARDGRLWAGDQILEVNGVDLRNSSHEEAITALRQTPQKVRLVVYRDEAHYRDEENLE
Sequence of Inadl_3, Q8NI35 (Q8NI35 359-469): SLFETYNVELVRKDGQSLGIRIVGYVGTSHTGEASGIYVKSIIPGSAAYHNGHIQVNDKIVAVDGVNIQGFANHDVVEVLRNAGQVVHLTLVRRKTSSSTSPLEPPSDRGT
Sequence of FRMPD3, Q5JV73 (Q5JV73 12-100): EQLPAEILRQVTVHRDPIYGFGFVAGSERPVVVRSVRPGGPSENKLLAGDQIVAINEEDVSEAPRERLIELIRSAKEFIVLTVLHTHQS
Sequence of SCRIB_1, Q14160 (Q14160 718-814): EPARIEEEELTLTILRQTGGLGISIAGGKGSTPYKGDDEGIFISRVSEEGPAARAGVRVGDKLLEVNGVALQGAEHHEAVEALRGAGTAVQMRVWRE
Sequence of MAST2, Q6P0Q8 (Q6P0Q8 1099-1202): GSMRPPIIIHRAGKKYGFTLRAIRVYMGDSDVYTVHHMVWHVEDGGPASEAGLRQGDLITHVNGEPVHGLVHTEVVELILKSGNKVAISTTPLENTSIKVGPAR
Sequence of MAGI2_6, Q86UL8 (Q86UL8 1141-1229): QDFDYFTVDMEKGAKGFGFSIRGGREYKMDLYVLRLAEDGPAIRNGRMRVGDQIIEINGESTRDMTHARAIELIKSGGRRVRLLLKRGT
Sequence of GIPC2, Q8TF65 (Q8TF65 112-203): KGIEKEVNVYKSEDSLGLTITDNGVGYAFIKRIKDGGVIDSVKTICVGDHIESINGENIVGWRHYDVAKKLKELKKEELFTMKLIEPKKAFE
Sequence of GRASP, Q7Z6J2 (Q7Z6J2 96-193): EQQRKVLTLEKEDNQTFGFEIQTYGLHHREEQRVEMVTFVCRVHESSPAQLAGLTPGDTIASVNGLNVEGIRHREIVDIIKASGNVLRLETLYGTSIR
Sequence of MAGI2_5, Q86UL8 (Q86UL8 915-1017): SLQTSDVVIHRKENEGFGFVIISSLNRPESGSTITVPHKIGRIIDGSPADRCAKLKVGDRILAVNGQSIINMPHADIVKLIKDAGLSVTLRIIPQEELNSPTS
Sequence of DLG4_1, P78352 (P78352 62-152): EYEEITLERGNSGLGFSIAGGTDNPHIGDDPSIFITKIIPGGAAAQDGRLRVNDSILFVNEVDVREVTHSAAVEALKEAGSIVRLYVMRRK
Sequence of ARHGEF12, Q9NZN5-2 (Q9NZN5 other isoform, or with tags, fused parts or gaps): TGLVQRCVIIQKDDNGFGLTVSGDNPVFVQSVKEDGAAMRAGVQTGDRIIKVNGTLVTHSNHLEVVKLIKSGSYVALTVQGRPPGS
Sequence of PTPN3, P26045 (P26045 505-587): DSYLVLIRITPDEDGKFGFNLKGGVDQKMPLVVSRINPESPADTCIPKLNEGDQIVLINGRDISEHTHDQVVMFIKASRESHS
Sequence of GRIP2_6, Q9C0E4 (Q9C0E4 648-740): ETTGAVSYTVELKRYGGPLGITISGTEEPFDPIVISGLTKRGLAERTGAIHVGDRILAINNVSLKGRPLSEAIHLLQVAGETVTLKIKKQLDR
Sequence of LIMK2, P53671 (P53671 143-248): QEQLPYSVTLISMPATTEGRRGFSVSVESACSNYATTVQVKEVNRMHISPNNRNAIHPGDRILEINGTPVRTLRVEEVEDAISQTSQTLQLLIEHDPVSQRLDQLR
Sequence of MAGI1_1, Q96QZ7 (Q96QZ7 1-106): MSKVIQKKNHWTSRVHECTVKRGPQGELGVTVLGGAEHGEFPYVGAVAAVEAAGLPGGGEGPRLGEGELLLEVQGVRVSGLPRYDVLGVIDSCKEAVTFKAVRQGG
Sequence of NHERF4_1, Q86UT5-2 (Q86UT5 other isoform, or with tags, fused parts or gaps): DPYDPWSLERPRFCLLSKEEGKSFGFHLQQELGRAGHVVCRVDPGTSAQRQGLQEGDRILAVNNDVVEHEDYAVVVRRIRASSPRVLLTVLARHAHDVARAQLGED
Sequence of Inadl_10, Q8NI35 (Q8NI35 1673-1763): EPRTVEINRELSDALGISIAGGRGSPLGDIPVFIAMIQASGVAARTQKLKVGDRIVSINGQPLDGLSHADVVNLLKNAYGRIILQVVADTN
Sequence of DLG2_2, Q15700 (Q15700 189-283): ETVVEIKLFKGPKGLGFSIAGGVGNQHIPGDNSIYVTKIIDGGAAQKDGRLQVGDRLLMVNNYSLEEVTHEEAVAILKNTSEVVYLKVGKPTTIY
Sequence of LDB3, O75112 (O75112 1-94): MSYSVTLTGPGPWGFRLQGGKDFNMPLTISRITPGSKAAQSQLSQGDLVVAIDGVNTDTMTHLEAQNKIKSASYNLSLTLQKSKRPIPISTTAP

In the case of QRPYRRGSEI [KCNJ18, B7U540], the pKd (FRMPD3, Q5JV73; [1]) is reported as “below the threshold”, the pKd (PARD3B_1, Q8TEW8; [1]) is reported as “below the threshold” and the pKd (SCRIB_1, Q14160; [1]) is reported as “below the threshold”. The pKd (LDB3, O75112; [1]) was “below the threshold”, the pKd (DLG2_2, Q15700; [1]) was “below the threshold” and the pKd (MAGI1_1, Q96QZ7; [1]) was “below the threshold”. For the same binder, the pKd (FRMPD1, Q5SYB0; [1]) was “below the threshold”, the pKd (ARHGEF12, Q9NZN5-2; [1]) was 3.74 and the pKd (DLG4_1, P78352; [1]) was “below the threshold”. For the same binder, the pKd (PDZRN3_1, Q9UPQ7; [1]) was “below the threshold”, the pKd (GRASP, Q7Z6J2; [1]) was “below the threshold” and the pKd (Inadl_3, Q8NI35; [1]) was “below the threshold”. For the same binder, the pKd (MPP2, Q14168; [1]) was “below the threshold”, the pKd (GIPC2, Q8TF65; [1]) was “below the threshold” and the pKd (LIMK2, P53671; [1]) was “below the threshold”. For the same binder, the pKd (LIN7A, O14910; [1]) was “below the threshold”, the pKd (GRIP2_6, Q9C0E4; [1]) was “below the threshold” and the pKd (MAST2, Q6P0Q8; [1]) was 4.1. For the same binder, the pKd (MAGI2_6, Q86UL8; [1]) was “below the threshold”, the pKd (ARHGAP21, Q5T5U3; [1]) was “below the threshold” and the pKd (RADIL, Q96JH8; [1]) was “below the threshold”. The pKd (Inadl_8, Q8NI35; [1]) was 3.69, the pKd (Inadl_10, Q8NI35; [1]) was “below the threshold” and the pKd (PTPN3, P26045; [1]) was 4.02. The pKd (NHERF4_1, Q86UT5-2; [1]) was “below the threshold”, the pKd (MAGI2_5, Q86UL8; [1]) was “below the threshold” and the pKd (CARD11, Q9BXL7; [1]) was “below the threshold”. The pKd (LNX2_3, Q8N448; [1]) was “below the threshold” and the pKd (SNX27, Q96L92; [1]) was “below the threshold”.

NISYRRESAI [KCNJ4, P48050] was tested, and the pKd (FRMPD3, Q5JV73; [1]) was “below the threshold”, the pKd (PARD3B_1, Q8TEW8; [1]) was “below the threshold” and the pKd (SCRIB_1, Q14160; [1]) was 3.89. For the same binder, the pKd (LDB3, O75112; [1]) was “below the threshold”, the pKd (DLG2_2, Q15700; [1]) was 3.86 and the pKd (MAGI1_1, Q96QZ7; [1]) was “below the threshold”. The pKd (FRMPD1, Q5SYB0; [1]) was “below the threshold”, the pKd (ARHGEF12, Q9NZN5-2; [1]) was “below the threshold” and the pKd (DLG4_1, P78352; [1]) was “below the threshold”. The pKd (PDZRN3_1, Q9UPQ7; [1]) was 4.43, the pKd (GRASP, Q7Z6J2; [1]) was “below the threshold” and the pKd (Inadl_3, Q8NI35; [1]) was “below the threshold”. For the same binder, the pKd (MPP2, Q14168; [1]) was “below the threshold”, the pKd (GIPC2, Q8TF65; [1]) was “below the threshold” and the pKd (LIMK2, P53671; [1]) was “below the threshold”. The pKd (LIN7A, O14910; [1]) was “below the threshold”, the pKd (GRIP2_6, Q9C0E4; [1]) was “below the threshold” and the pKd (MAST2, Q6P0Q8; [1]) was 4.72. The pKd (MAGI2_6, Q86UL8; [1]) was “below the threshold”, the pKd (ARHGAP21, Q5T5U3; [1]) was “below the threshold” and the pKd (RADIL, Q96JH8; [1]) was “below the threshold”. For the same binder, the pKd (Inadl_8, Q8NI35; [1]) was “below the threshold”, the pKd (Inadl_10, Q8NI35; [1]) was “below the threshold” and the pKd (PTPN3, P26045; [1]) was 4.6. For the same binder, the pKd (NHERF4_1, Q86UT5-2; [1]) was 3.48, the pKd (MAGI2_5, Q86UL8; [1]) was “below the threshold” and the pKd (CARD11, Q9BXL7; [1]) was “below the threshold”. The pKd (LNX2_3, Q8N448; [1]) was “below the threshold” and the pKd (SNX27, Q96L92; [1]) was “below the threshold”.

With ARSAAASNYV [CLDN4, O14493] the pKd (FRMPD3, Q5JV73; [1]) was “below the threshold”, the pKd (PARD3B_1, Q8TEW8; [1]) was 3.65 and the pKd (SCRIB_1, Q14160; [1]) was “below the threshold”. The pKd (LDB3, O75112; [1]) was “below the threshold”, the pKd (DLG2_2, Q15700; [1]) was “below the threshold” and the pKd (MAGI1_1, Q96QZ7; [1]) was “below the threshold”. For the same binder, the pKd (FRMPD1, Q5SYB0; [1]) was “below the threshold”, the pKd (ARHGEF12, Q9NZN5-2; [1]) was 3.73 and the pKd (DLG4_1, P78352; [1]) was 3.54. The pKd (PDZRN3_1, Q9UPQ7; [1]) was “below the threshold”, the pKd (GRASP, Q7Z6J2; [1]) was “below the threshold” and the pKd (Inadl_3, Q8NI35; [1]) was “below the threshold”. For the same binder, the pKd (MPP2, Q14168; [1]) was “below the threshold”, the pKd (GIPC2, Q8TF65; [1]) was “below the threshold” and the pKd (LIMK2, P53671; [1]) was “below the threshold”. The pKd (LIN7A, O14910; [1]) was “below the threshold”, the pKd (GRIP2_6, Q9C0E4; [1]) was “below the threshold” and the pKd (MAST2, Q6P0Q8; [1]) was “below the threshold”. For the same binder, the pKd (MAGI2_6, Q86UL8; [1]) was “below the threshold”, the pKd (ARHGAP21, Q5T5U3; [1]) was 3.9 and the pKd (RADIL, Q96JH8; [1]) was 4.5. The pKd (Inadl_8, Q8NI35; [1]) was 4.06, the pKd (Inadl_10, Q8NI35; [1]) was “below the threshold” and the pKd (PTPN3, P26045; [1]) was “below the threshold”. For the same binder, the pKd (NHERF4_1, Q86UT5-2; [1]) was 3.7, the pKd (MAGI2_5, Q86UL8; [1]) was “below the threshold” and the pKd (CARD11, Q9BXL7; [1]) was “below the threshold”. For the same binder, the pKd (LNX2_3, Q8N448; [1]) was “below the threshold” and the pKd (SNX27, Q96L92; [1]) was 3.53.

In the case of QDEKVKESYV [ABCA1, O95477], the pKd (FRMPD3, Q5JV73; [2]) is reported as “below the threshold”, the pKd (PARD3B_1, Q8TEW8; [2]) is reported as “below the threshold” and the pKd (SCRIB_1, Q14160; [2]) is reported as 4.15. The pKd (LDB3, O75112; [2]) was 3.53, the pKd (DLG2_2, Q15700; [2]) was 4.17 and the pKd (MAGI1_1, Q96QZ7; [2]) was “below the threshold”. The pKd (FRMPD1, Q5SYB0; [2]) was “below the threshold”, the pKd (ARHGEF12, Q9NZN5-2; [2]) was 4.27 and the pKd (DLG4_1, P78352; [2]) was 4.52. It also gave a pKd (PDZRN3_1, Q9UPQ7; [2]) of 4.31, a pKd (GRASP, Q7Z6J2; [2]) of 3.57 and a pKd (Inadl_3, Q8NI35; [2]) of 3.75. For the same binder, the pKd (MPP2, Q14168; [2]) was “below the threshold”, the pKd (GIPC2, Q8TF65; [2]) was 4.26 and the pKd (LIMK2, P53671; [2]) was “below the threshold”. The pKd (LIN7A, O14910; [2]) was 3.89, the pKd (GRIP2_6, Q9C0E4; [2]) was “below the threshold” and the pKd (MAST2, Q6P0Q8; [2]) was 4.68. For the same binder, the pKd (MAGI2_6, Q86UL8; [2]) was 4.53, the pKd (ARHGAP21, Q5T5U3; [2]) was “below the threshold” and the pKd (RADIL, Q96JH8; [2]) was 4.89. The pKd (Inadl_8, Q8NI35; [2]) was 4.68, the pKd (Inadl_10, Q8NI35; [2]) was “below the threshold” and the pKd (PTPN3, P26045; [2]) was 5.04. For the same binder, the pKd (NHERF4_1, Q86UT5-2; [2]) was 3.48, the pKd (MAGI2_5, Q86UL8; [2]) was 4.58 and the pKd (CARD11, Q9BXL7; [2]) was “below the threshold”. It also gave a pKd (LNX2_3, Q8N448; [2]) of 3.63 and a pKd (SNX27, Q96L92; [2]) of 5.63.
